The test has as its target extracellular region of human V158 FcγRIIIa fused with glutathione S-Transferase (GST) (human) (UniProt P08637). Kind of test: AlphaScreen competition.

extracellular region of human V158 FcγRIIIa fused with glutathione S-Transferase (GST) (human), sequence (P08637 17-208 F176V): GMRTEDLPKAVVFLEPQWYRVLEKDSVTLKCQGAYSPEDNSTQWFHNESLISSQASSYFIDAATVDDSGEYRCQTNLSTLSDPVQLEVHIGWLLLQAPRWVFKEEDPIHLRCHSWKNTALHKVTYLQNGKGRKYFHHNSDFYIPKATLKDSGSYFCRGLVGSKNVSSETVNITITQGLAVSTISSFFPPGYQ

S267Q/A327S alemtuzumab (antibody) showed a FcγRIIIa Fold of 0.03 fold vs WT.
The result for “S239D/D265H/N297D/I332E alemtuzumab (antibody)” reads 0.04 fold vs WT; that for F241W/F243W alemtuzumab (antibody), 0.07 fold vs WT.
In the case of T299A alemtuzumab (antibody), the FcγRIIIa Fold came out at 0.03 fold vs WT.
In turn, “F241E/F243Q/V262T/V264E alemtuzumab (antibody)” came in with a FcγRIIIa Fold of 0.07 fold vs WT.
The same measure for “Y296N/N297D/I332E alemtuzumab (antibody)”: 0.04 fold vs WT; for “V264E/N297D/I332E alemtuzumab (antibody)”: 0.05 fold vs WT.
In turn, L234I/L235D trastuzumab (antibody) gave a FcγRIIIa Fold of 0.07 fold vs WT.
For “F241E/F243R/V262E/V264R alemtuzumab (antibody)”, the FcγRIIIa Fold was 0.05 fold vs WT.
The result for “F241E/F243Y/V262T/V264R alemtuzumab (antibody)” reads 0.05 fold vs WT; that for “F241R/F243Q/V262T/V264R alemtuzumab (antibody)”, 0.02 fold vs WT; that for A327L alemtuzumab (antibody), 0.05 fold vs WT.
The same measure for F241L/V262I alemtuzumab (antibody): 0.06 fold vs WT.
Substance “S239D/D265V/N297D/I332E alemtuzumab (antibody)” gave a FcγRIIIa Fold of 0.03 fold vs WT.
The result for “S239E/N297D/I332E alemtuzumab (antibody)” reads 0.06 fold vs WT; that for S239E/D265Q alemtuzumab (antibody), 0.05 fold vs WT.

The values above are taken from patent publication US20070224189A1.
